{
  "source": "paper PMC7160673",
  "about": "“A Degenerate Peptide Library Approach to Reveal Sequence Determinants of Methyllysine-Driven Protein Interactions” (Frontiers in Cell and Developmental Biology, 2020)",
  "key": {"[1]": {"target": "biotinylated H3(1-20)K9me2 peptide", "test": "Kme-OPL pulldown fluorescence assay (GST-tagged reader domain)", "settings": "parent: est. 1300; read off a plot"}, "FAM-WAY(Kme3)TGK peptide": {"target": "FAM-WAY(Kme3)TGK peptide", "test": "fluorescence polarisation; protein serially diluted with 10 nM FAM peptide; 25 mM HEPES pH 7.5, 100 mM NaCl, 0.05% NP-40; anisotropy fitted by specific binding with Hill slope"}, "[2]": {"target": "FAM-KAK(Kme3)TGK peptide (human)", "test": "fluorescence polarisation; protein serially diluted with 10 nM FAM peptide; 25 mM HEPES pH 7.5, 100 mM NaCl, 0.05% NP-40; anisotropy fitted by specific binding with Hill slope"}, "[3]": {"target": "FAM-TAR(Kme3)STG peptide (H3K9me3)", "test": "fluorescence polarisation; protein serially diluted with 10 nM FAM peptide; 25 mM HEPES pH 7.5, 100 mM NaCl, 0.05% NP-40; anisotropy fitted by specific binding with Hill slope"}, "[4]": {"target": "FAM-KAK(Kme3)TGK peptide (human)", "test": "fluorescence polarisation; protein serially diluted with 10 nM FAM peptide; 25 mM HEPES pH 7.5, 100 mM NaCl, 0.05% NP-40; anisotropy fitted by specific binding with Hill slope", "remark": "listed apart in the source"}},
  "note": "Where two headings read alike, the source gives them in different places.",
  "data": [
    {"substance": "M Phase Phosphoprotein 8 chromodomain (from UniProt Q99549) W80A", "values": [
      {"measurement": "response (RFU (GST-subtracted fluorescence))", "setting": "[1]", "value": 150}
    ]},
    {"substance": "Chromodomain Y-like protein 2 chromodomain (domain or fragment)", "values": [
      {"measurement": "fold tighter than the H3K9me3 peptide", "setting": "FAM-WAY(Kme3)TGK peptide", "value": 100, "unit": "fold"},
      {"measurement": "Kd", "setting": "[2]", "value": 3600, "unit": "nM"}
    ]},
    {"substance": "M Phase Phosphoprotein 8 chromodomain (from UniProt Q99549 55-116) (domain or fragment)", "values": [
      {"measurement": "Kd", "setting": "[2]", "value": 840, "unit": "nM"},
      {"measurement": "fold tighter than the H3K9me3 peptide", "setting": "[2]", "value": 10, "unit": "fold"},
      {"measurement": "Kd", "setting": "[3]", "value": 5.4, "unit": "µM"},
      {"measurement": "Kd", "setting": "[4]", "value": 660, "unit": "nM"}
    ]}
  ]
}
